Experimental findings from patent US20160130315A1 (AJOU UNIVERSITY INDUSTRY ACADEMIC COOPERATION FOUNDATION, published 2016) are described below.

The assay addresses T1, Fc (human, UniProt P01857-1 104-330 = IgG part, limits assumed).
T1 construct: domain: Fc (hinge-CH2-CH3); Control without TPP; also called control group Fc; antibody heavy-chain constant region
Briefly: FACS on cells carrying neuropilin-1 and -2.

B1: neuropilin-2 expressed on cell surface (receptor, human, UniProt O60462 21-931, looked up)
chain: RGQPDPPCGGRLNSKDAGYITSPGYPQDYPSHQNCEWIVYAPEPNQKIVLNFNPHFEIEKHDCKYDFIEIRDGDSESADLLGKHCGNIAPPTIISSGSMLYIKFTSDYARQGAGFSLRYEIFKTGSEDCSKNFTSPNGTIESPGFPEKYPHNLDCTFTILAKPKMEIILQFLIFDLEHDPLQVGEGDCKYDWLDIWDGIPHVGPLIGKYCGTKTPSELRSSTGILSLTFHTDMAVAKDGFSARYYLVHQEPLENFQCNVPLGMESGRIANEQISASSTYSDGRWTPQQSRLHGDDNGWTPNLDSNKEYLQVDLRFLTMLTAIATQGAISRETQNGYYVKSYKLEVSTNGEDWMVYRHGKNHKVFQANNDATEVVLNKLHAPLLTRFVRIRPQTWHSGIALRLELFGCRVTDAPCSNMLGMLSGLIADSQISASSTQEYLWSPSAARLVSSRSGWFPRIPQAQPGEEWLQVDLGTPKTVKGVIIQGARGGDSITAVEARAFVRKFKVSYSLNGKDWEYIQDPRTQQPKLFEGNMHYDTPDIRRFDPIPAQYVRVYPERWSPAGIGMRLEVLGCDWTDSKPTVETLGPTVKSEETTTPYPTEEEATECGENCSFEDDKDLQLPSGFNCNFDFLEEPCGWMYDHAKWLRTTWASSSSPNDRTFPDDRNFLRLQSDSQREGQYARLISPPVHLPRSPVCMEFQYQATGGRGVALQVVREASQESKLLWVIREDQGGEWKHGRIILPSYDMEYQIVFEGVIGKGRSGEIAIDDIRISTDVPLENCMEPISAFAGENFKVDIPEIHEREGYEDEIDDEYEVDWSNSSSATSGSGAPSTDKEKSWLYTLDPILITIIAMSSLGVLLGATCAGLLLYCTCSYSGLSSRSCTTLENYNFELYDGLKHKVKMNHQKCCSEA
notes: whole, on cells; Endogenous expression; the same cells also carry neuropilin-1; also called NRP2
B1: the binding result is reported as “no binding (tested: 1 µM)”.
